{"source": "patent EP2975059A1", "target": "Human PCSK9 form a' (human)", "assay": "SPR ProteOn XPR36, antibody captured on anti-human IgG, PCSK9 variant as analyte, 25 C, 1:1 model", "data": [{"substance": "Evolocumab (antibody)", "values": [{"measurement": "Kd", "result": 185, "unit": "pM"}, {"measurement": "koff", "result": "2.29e-05", "unit": "s⁻¹"}, {"measurement": "kon", "result": 124000, "unit": "M⁻¹ s⁻¹"}]}]}
